Measured values reported in PMC3638396 (Philosophical Transactions of the Royal Society B: …, 2013).

Key:
[1] = target: the molecule itself; experiment: quartz crystal microbalance; sonicated Ure2p fibril seeds attached to the gold sensor by Traut's reagent; 1 μM soluble Ure2p introduced, measured without flow; Tris buffer pH 8.4; elongation of the surface-bound seeds
WT Ssa1p = target: T1, WT Ssa1p (yeast (S. cerevisiae), UniProt P10591 1-642); experiment: co-sedimentation; called 'pull-down assay' / 'filament pull-down assay': 10 μM Ure2p fibril seeds with 20 μM WT or ΔA Ssa1p, Tris buffer pH 8.4, 30°C, 2 h; centrifuged through 40 per cent sucrose at 61 000 rpm, 30 min, 4°C; washed pellets on SDS-PAGE; conditions: both partners purified
T1 construct: Ssa1p, yeast HSP70 family member, residues 1-642 (NBD, SBD, CTD); also called wild-type Ssa1p; full-length Ssa1p; source: plasmid pPROEX-HTb-Ssa1
T1 sequence (P10591 whole entry, the tested form may be a part): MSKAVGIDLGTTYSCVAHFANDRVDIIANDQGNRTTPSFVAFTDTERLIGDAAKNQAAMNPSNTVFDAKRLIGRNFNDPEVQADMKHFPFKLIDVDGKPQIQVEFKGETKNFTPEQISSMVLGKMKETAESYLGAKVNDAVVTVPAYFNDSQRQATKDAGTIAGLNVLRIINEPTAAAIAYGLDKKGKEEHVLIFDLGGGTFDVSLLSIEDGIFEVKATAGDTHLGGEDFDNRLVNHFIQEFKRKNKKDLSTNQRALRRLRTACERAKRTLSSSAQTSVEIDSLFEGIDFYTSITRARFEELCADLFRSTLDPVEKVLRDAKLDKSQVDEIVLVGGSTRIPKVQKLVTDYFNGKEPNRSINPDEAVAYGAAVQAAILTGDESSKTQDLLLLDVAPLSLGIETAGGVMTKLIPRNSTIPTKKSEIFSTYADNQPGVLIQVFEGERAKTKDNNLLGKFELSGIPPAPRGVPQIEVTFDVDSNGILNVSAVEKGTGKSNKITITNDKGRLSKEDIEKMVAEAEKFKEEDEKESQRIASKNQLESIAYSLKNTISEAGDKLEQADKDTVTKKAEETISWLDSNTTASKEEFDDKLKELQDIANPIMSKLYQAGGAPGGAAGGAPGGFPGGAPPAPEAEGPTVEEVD

B1: Ure2p (natural protein, Saccharomyces cerevisiae, UniProt P23202 1-354, looked up)
chain: MMNNNGNQVSNLSNALRQVNIGNRNSNTTTDQSNINFEFSTGVNNNNNNNSSSNNNNVQNNNSGRNGSQNNDNENNIKNTLEQHRQQQQAFSDMSHVEYSRITKFFQEQPLEGYTLFSHRSAPNGFKVAIVLSELGFHYNTIFLDFNLGEHRAPEFVSVNPNARVPALIDHGMDNLSIWESGAILLHLVNKYYKETGNPLLWSDDLADQSQINAWLFFQTSGHAPMIGQALHFRYFHSQKIASAVERYTDEVRRVYGVVEMALAERREALVMELDTENAAAYSAGTTPMSQSRFFDYPVWLVGDKLTIADLAFVPWNNVVDRIGINIKIEFPEVYKWTKHMMRRPAVIKALRGE
notes: Ure2p, the protein determinant of the Saccharomyces cerevisiae prion state [URE3]; a 354-residue protein; One construct used in two states: native soluble protein (DLS, solution phase of QCM) and sonicated fibril seeds (co-sedimentation, QCM sensor; seeds treated with Traut's reagent for the sensor); The state is told in each assay's format; also called native Ure2p; soluble Ure2p; source: …
Question: Does B1 bind [1]?
Answer: binds

Question: Does B1 bind (WT Ssa1p)?
Answer: binds
